Laboratory results taken from patent publication US20110207796.

Molecular target: human alpha-synuclein (wild-type, recombinant)

B1: adrenergic, beta, receptor kinase 1 (GRK2; BARK1) (protein)
chain: MADLEAVLADVSYLMAMEKSKATPAARASKKILLPEPSIRSVMQKYLEDRGEVTFEKIFSQKLGYLLFRDFCLNHLEEARPLVEFYEEIKKYEKLETEEERVARSREIFDSYIMKELLACSHPFSKSATEHVQGHLGKKQVPPDLFQPYIEEICQNLRGDVFQKFIESDKFTRFCQWKNVELNIHLTMNDFSVHRIIGRGGFGEVYGCRKADTGKMYAMKCLDKKRIKMKQGETLALNERIMLSLVSTGDCPFIVCMSYAFHTPDKLSFILDLMNGGDLHYHLSQHGVFSEADMRFYAAEIILGLEHMHNRFVVYRDLKPANILLDEHGHVRISDLGLACDFSKKKPHASVGTHGYMAPEVLQKGVAYDSSADWFSLGCMLFKLLRGHSPFRQHKTKDKHEIDRMTLTMAVELPDSFSPELRSLLEGLLQRDVNRRLGCLGRGAQEVKESPFFRSLDWQMVFLQKYPPPLIPPRGEVNAADAFDIGSFDEEDTKGIKLLDSDQELYRNFPLTISERWQQEVAETVFDTINAETDRLEARKKAKNKQLGHEEDYALGKDCIMHGYMSKMGNPFLTQWQRRYFYLFPNRLEWRGEGEAPQSLLTMEEIQSVEETQIKERKCLLLKIRGGKQFILQCDSDPELVQWKKELRDAYREAQQLVQRVPKMKNKPRSPVVELSKVPLVQRGSANGL
**Q.** B1 was tested. Which “S129 phosphorylation, immunoblot (mAb 11A5), rank of signal” value did it give?
**A.** CKI>GRK6>PLK2>GRK4>GRK5>GRK2

**Q.** What about the “in vitro kinase reaction, phosphorylation of alpha-synuclein at serine 129” value of the same protein?
**A.** capable of phosphorylating alpha-synuclein specifically at serine 129 and did not phosphorylate serine 87 in vitro

B2: met proto-oncogene (hepatocyte growth factor receptor) (protein)
chain: KKRKQIKDLGSELVRYDARVHTPHLDRLVSARSVSPTTEMVSNESVDYRATFPEDQFPNSSQNGSCRQVQYPLTDMSPILTSGDSDISSPLLQNTVHIDLSALNPELVQAVQHVVIGPSSLIVHFNEVIGRGHFGCVYHGTLLDNDGKKIHCAVKSLNRITDIGEVSQFLTEGIIMKDFSHPNVLSLLGICLRSEGSPLVVLPYMKHGDLRNFIRNETHNPTVKDLIGFGLQVAKGMKYLASKKFVHRDLAARNCMLDEKFTVKVADFGLARDMYDKEYYSVHNKTGAKLPVKWMALESLQTQKFTTKSDVWSFGVLLWELMTRGAPPYPDVNTFDITVYLLQGRRLLQPEYCPDPLYEVMLKCWHPKAEMRPSFSELVSRISAIFSTFIGEHYVHVNATYVNVKCVAPYPSLLSSEDNADDEVDTRPASFWETS
**Q.** Which “in vitro kinase reaction, phosphorylation of alpha-synuclein” value does the source give for B2 here?
**A.** shown to be incapable of directly phosphorylating alpha-synuclein

B3: CDC7 cell division cycle 7-like 1 (protein)
chain: MEASLGIQMDEPMAFSPQRDRFQAEGSLKKNEQNFKLAGVKKDIEKLYEAVPQLSNVFKIEDKIGEGTFSSVYLATAQLQVGPEEKIALKHLIPTSHPIRIAAELQCLTVAGGQDNVMGVKYCFRKNDHVVIAMPYLEHESFLDILNSLSFQEVREYMLNLFKALKRIHQFGIVHRDVKPSNFLYNRRLKKYALVDFGLAQGTHDTKIELLKFVQSEAQQERCSQNKSHIITGNKIPLSGPVPKELDQQSTTKASVKRPYTNAQIQIKQGKDGKEGSVGLSVQRSVFGERNFNIHSSISHESPAVKLMKQSKTVDVLSRKLATKKKAISTKVMNSAVMRKTASSCPASLTCDCYATDKVCSICLSRRQQVAPRAGTPGFRAPEVLTKCPNQTTAIDMWSAGVIFLSLLSGRYPFYKASDDLTALAQIMTIRGSRETIQAAKTFGKSILCSKEVPAQDLRKLCERLRGMDSSTPKLTSDIQGHASHQPAISEKTDHKASCLVQTPPGQYSGNSFKKGDSNSCEHCFDEYNTNLEGWNEVPDEAYDLLDKLLDLNPASRITAEEALLHPFFKDMSL
**Q.** Which “in vitro kinase reaction, phosphorylation of alpha-synuclein” value does the source give for B3 here?
**A.** shown to be incapable of directly phosphorylating alpha-synuclein

B4: PLK4 (protein)
chain: MATCIGEKIEDFKVGNLLGKGSFAGVYRAESIHTGLEVAIKMIDKKAMYKAGMVQRVQNEVKIHCQLKHPSILELYNYFEDSNYVYLVLEMCHNGEMNRYLKNRVKPFSENEARHFMHQIITGMLYLHSHGILHRDLTLSNLLLTRNMNIKIADFGLATQLKMPHEKHYTLCGTPNYISPEIATRSAHGLESDVWSLGCMFYTLLIGRPPFDTDTVKNTLNKVVLADYEMPSFLSIEAKDLIHQLLRRNPADRLSLSSVLDHPFMSRNSSTKSKDLGTVEDSIDSGHATISTAITASSSTSISGSLFDKRRLLIGQPLPNKMTVFPKNKSSTDFSSSGDGNSFYTQWGNQETSNSGRGRVIQDAEERPHSRYLRRAYSSDRSGTSNSQSQAKTYTMERCHSAEMLSVSKRSGGGENEERYSPTDNNANIFNFFKEKTSSSSGSFERPDNNQALSNHLCPGKTPFPFADPTPQTETVQQWFGNLQINAHLRKTTEYDSISPNRDFQGHPDLQKDTSKNAWTDTKVKKNSDASDNAHSVKQQNTMKYMTALHSKPEIIQQECVFGSDPLSEQSKTRGMEPPWGYQNRTLRSITSPLVAHRLKPIRQKTKKAVVSILDSEEVCVELVKEYASQEYVKEVLQISSDGNTITIYYPNGGRGFPLADRPPSPTDNISRYSFDNLPEKYWRKYQYASRFVQLVRSKSPKITYFTRYAKCILMENSPGADFEVWFYDGVKIHKTEDFIQVIEKTGKSYTLKSESEVNSLKEEIKMYMDHANEGHRICLALESIISEEERKTRSAPFFPIIIGRKPGSTSSPKALSPPPSVDSNYPTRERASFNRMVMHSAASPTQAPILNPSMVTNEGLGLTTTASGTDISSNSLKDCLPKSAQLLKSVFVKNVGWATQLTSGAVWVQFNDGSQLVVQAGVSSISYTSPNGQTTRYGENEKLPDYIKQKLQCLSSILLMFSNPTPNFH
**Q.** With B4 as the protein, how does the Fold Change in Percent Synuclein Phosphorylation (ELISA, HEK-293 overexpression) read?
**A.** 1 fold

**Q.** And the “Proportion of total synuclein that is phoshorylated at ser-129 (ELISA, HEK-293 overexpression)” value?
**A.** 1.9%

**Q.** And the “in vitro biochemical assay, phosphorylation of synuclein” value?
**A.** PLK4 exhibiting no ability to phosphorylate synuclein

B5: GRK4 (protein)
chain: MELENIVANSLLLKARQGGYGKKSGRSKKWKEILTLPPVSQCSELRHSIEKDYSSLCDKQPIGRRLFRQFCDTKPTLKRHIEFLDAVAEYEVADDEDRSDCGLSILDRFFNDKLAAPLPEIPPDVVTECRLGLKEENPSKKAFEECTRVAHNYLRGEPFEEYQESSYFSQFLQWKWLERQPVTKNTFRHYRVLGKGGFGEVCACQVRATGKMYACKKLQKKRIKKRKGEAMALNEKRILEKVQSRFVVSLAYAYETKDALCLVLTIMNGGDLKFHIYNLGNPGFDEQRAVFYAAELCCGLEDLQRERIVYRDLKPENILLDDRGHIRISDLGLATEIPEGQRVRGRVGTVGYMAPEVVNNEKYTFSPDWWGLGCLIYEMIQGHSPFKKYKEKVKWEEVDQRIKNDTEEYSEKFSEDAKSICRMLLTKNPSKRLGCRGEGAAGVKQHPVFKDINFRRLEANMLEPPFCPDPHAVYCKDVLDIEQFSVVKGIYLDTADEDFYARFATGCVSIPWQNEMIESGCFKDINKSESEEALPLDLDKNIHTPVSRPNRGFFYRLFRRGGCLTMVPSEKEVEPKQC
**Q.** B5 was tested. Which “S129 phosphorylation, immunoblot (mAb 11A5), rank of signal” value did it give?
**A.** CKI>GRK6>PLK2>GRK4>GRK5>GRK2

B6: GRK7 (protein)
chain: MVDMGALDNLIANTAYLQARKPSDCDSKELQRRRRSLALPGLQGCAELRQKLSLNFHSLCEQQPIGRRLFRDFLATVPTFRKAATFLEDVQNWELAEEGPTKDSALQGLVATCASAPAPGNPQPFLSQAVATKCQAATTEEERVAAVTLAKAEAMAFLQEQPFKDFVTSAFYDKFLQWKLFEMQPVSDKYFTEFRVLGKGGFGEVCAVQVKNTGKMYACKKLDKKRLKKKGGEKMALLEKEILEKVSSPFIVSLAYAFESKTHLCLVMSLMNGGDLKFHIYNVGTRGLDMSRVIFYSAQIACGMLHLHELGIVYRDMKPENVLLDDLGNCRLSDLGLAVEMKGGKPITQRAGTNGYMAPEILMEKVSYSYPVDWFAMGCSIYEMVAGRTPFKDYKEKVSKEDLKQRTLQDEVKFQHDNFTEEAKDICRLFLAKKPEQRLGSREKSDDPRKHHFFKTINFPRLEAGLIEPPFVPDPSVVYAKDIAEIDDFSEVRGVEFDDKDKQFFKNFATGAVPIAWQEEIIETGLFEELNDPNRPTGCEEGNSSKSGVCLLL
**Q.** With B6 as the protein, how does the “S129 phosphorylation, immunoblot (mAb 11A5)” value read?
**A.** Prominent signals came from all GRKs except for GRK7

**Q.** What about the “in vitro kinase reaction, phosphorylation of alpha-synuclein at serine 129” value of the same protein?
**A.** capable of phosphorylating alpha-synuclein specifically at serine 129 and did not phosphorylate serine 87 in vitro

**Q.** What about the “phosphorylation of alpha-synuclein in vitro” value of the same protein?
**A.** GRK 7 was not able to phosphorylate at appreciable levels

B7: PLK3 (protein)
chain: MEPAAGFLSPRPFQRAAAAPAPPAGPGPPPSALRGPELEMLAGLPTSDPGRLITDPRSGRTYLKGRLLGKGGFARCYEATDTETGSAYAVKVIPQSRVAKPHQREKILNEIELHRDLQHRHIVRFSHHFEDADNIYIFLELCSRKSLAHIWKARHTLLEPEVRYYLRQILSGLKYLHQRGILHRDLKLGNFFITENMELKVGDFGLAARLEPPEQRKKTICGTPNYVAPEVLLRQGHGPEADVWSLGCVMYTLLCGSPPFETADLKETYRCIKQVHYTLPASLSLPARQLLAAILRASPRDRPSIDQILRHDFFTKGYTPDRLPISSCVTVPDLTPPNPARSLFAKVTKSLFGRKKKSKNHAQERDEVSGLVSGLMRTSVGHQDARPEAPAASGPAPVSLVETAPEDSSPRGTLASSGDGFEEGLTVATVVESALCALRNCIAFMPPAEQNPAPLAQPEPLVWVSKWVDYSNKFGFGYQLSSRRVAVLFNDGTHMALSANRKTVHYNPTSTKHFSFSVGAVPRALQPQLGILRYFASYMEQHLMKGGDLPSVEEVEVPAPPLLLQWVKTDQALLMLFSDGTVQVNFYGDHTKLILSGWEPLLVTFVARNRSACTYLASHLRQLGCSPDLRQRLRYALRLLRDRSPA
**Q.** With B7 as the protein, how does the Fold Change in Percent Synuclein Phosphorylation (ELISA, HEK-293 overexpression) read?
**A.** 39.6 fold

**Q.** And the “Proportion of total synuclein that is phoshorylated at ser-129 (ELISA, HEK-293 overexpression)” value?
**A.** 79.2%

**Q.** What about the “in vitro biochemical assay, phosphorylation of synuclein” value of the same protein?
**A.** PLK2 and PLK3 having extremely robust phosphorylation of synuclein

B8: G protein-coupled receptor kinase 6 (protein)
chain: MELENIVANTVLLKAREGGGGNRKGKSKKWRQMLQFPHISQCEELRLSLERDYHSLCERQPIGRLLFREFCATRPELSRCVAFLDGVAEYEVTPDDKRKACGRQLTQNFLSHTGPDLIPEVPRQLVTNCTQRLEQGPCKDLFQELTRLTHEYLSVAPFADYLDSIYFNRFLQWKWLERQPVTKNTFRQYRVLGKGGFGEVCACQVRATGKMYACKKLEKKRIKKRKGEAMALNEKQILEKVNSRFVVSLAYAYETKDALCLVLTLMNGGDLKFHIYHMGQAGFPEARAVFYAAEICCGLEDLHRERIVYRDLKPENILLDDHGHIRISDLGLAVHVPEGQTIKGRVGTVGYMAPEVVKNERYTFSPDWWALGCLLYEMIAGQSPFQQRKKKIKREEVERLVKEVPEEYSERFSPQARSLCSQLLCKDPAERLGCRGGSAREVKEHPLFKKLNFKRLGAGMLEPPFKPDPQAIYCKDVLDIEQFSTVKGVELEPTDQDFYQKFATGSVPIPWQNEMVETECFQELNVFGLDGSVPPDLDWKGQPPAPPKKGLLQRLFSRQDCCGNCSDSEEELPTRL
**Q.** Which results are given for B8?
**A.** S129 phosphorylation in vitro, kinases normalized by activity units: The most prominent result came from GRK6; S129 phosphorylation, immunoblot (mAb 11A5), kinase:rAS 1:200 molar: Prominent signals came from GRK6, CKI, CKII and PLK2; S129 phosphorylation, immunoblot (mAb 11A5), rank of signal: CKI>GRK6>PLK2>GRK4>GRK5>GRK2; in vitro kinase reaction, phosphorylation of alpha-synuclein at serine 129: capable of phosphorylating alpha-synuclein specifically at serine 129 and did not phosphorylate serine 87 in vitro; phospho ser-129 in vitro, kinases normalized for molarity: roughly equivalent levels of phospho ser-129 between CKI, GRK6 and PLK2
